± gives the half width of the 95% confidence interval.
Tests used:
[1] = folding stability dG unfold from trypsin proteolysis; higher = more stable
Outline: (§1)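 How resistant each design was to proteolysis was captured as K50, inferred by Bayesian fitting of sequencing counts. Unfolding free energy was then derived relative to a sequence-predicted unfolded-state K50 and a shared folded-state K50, per protease or combined. Digestion used trypsin and chymotrypsin at 11 threefold-diluted concentrations plus a no-protease condition, on mini-proteins under 80 residues without cysteine in a PA-tagged cDNA display construct. Designs were kept only when AlphaFold2 dimer inter-PAE was above 15.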

[2] = folding stability dG unfold (combined trypsin and chymotrypsin); higher = more stable
Outline: as §1

[3] = folding stability dG unfold from chymotrypsin proteolysis; higher = more stable
Outline: as §1

SAGGSAPEALVFVERREDDSLTVVVLFPDGTLVTRRVEVRDEGVTVETETAPVLVIPEPGRLELALSAGGSA [r15_746_TrMRF]
folding stability dG unfold [1]: 0.595 ± 0.029 kcal/mol
folding stability dG unfold [2]: 1.14 ± 0.051 kcal/mol
folding stability dG unfold [3]: 1.39 ± 0.046 kcal/mol

SAGTVRLEVTVVIKLTKEQIENLPKDVKLEDGAEIEEKDDYLVIKRTIELPPPVVTDKDGKKLPLEELSAGG [r19_148_TrROS_Hall]
folding stability dG unfold [1]: 0.23 ± 0.17 kcal/mol
folding stability dG unfold [2]: 0.938 ± 0.32 kcal/mol
folding stability dG unfold [3]: 1.4 ± 0.087 kcal/mol

SALKIEISFPGNAGEVRERVLGREDGSYEVEFLVTFPTPGDGIPSVLRVTYRVDPVSGKIEPRLEPVDASAG [r14_590_TrMRF]
folding stability dG unfold [1]: 1.48 ± 0.025 kcal/mol
folding stability dG unfold [2]: 2.65 ± 0.052 kcal/mol
folding stability dG unfold [3]: 3.24 ± 0.036 kcal/mol

SAGGSAGGSAGGQTIVIDSRLLRTALENGDLEKLKALVEEAGYNPENAKIYLITPEELKESAGGSAGGSAGG [r7_3_TrMRF]
folding stability dG unfold [1]: -0.133 ± 0.1 kcal/mol
folding stability dG unfold [2]: 0.464 ± 0.055 kcal/mol
folding stability dG unfold [3]: 0.741 ± 0.11 kcal/mol

SAGMTITIPAPPSLSPEEAVALAIERVKEEYPELLTPGSEVNIVVIREDPATGTSQTLTVTVPFPEGIFSAG [r5_916_JUSTAS]
folding stability dG unfold [1]: 1.98 ± 0.045 kcal/mol
folding stability dG unfold [2]: 1.79 ± 0.086 kcal/mol
folding stability dG unfold [3]: 1.57 ± 0.044 kcal/mol

SASNRVTVSSETVREGDKKLLKLTVTITDSSTGRTSTETLTTEDPEKAREELAARPDVSTLTFETLTPGSAG [r14_464_JUSTAS]
folding stability dG unfold [1]: 0.303 ± 0.12 kcal/mol
folding stability dG unfold [2]: 0.1 ± 0.19 kcal/mol
folding stability dG unfold [3]: -0.196 ± 0.2 kcal/mol

SAGGSDKEEKEKEIDIRIVQVPWDDARELAEESDDPVIFMLPDGHIHIFKGDGKVEPFPIPDPEEFSAGGSA [r2_34_TrROS]
folding stability dG unfold [1]: -0.288 ± 0.071 kcal/mol
folding stability dG unfold [2]: 0.0224 ± 0.12 kcal/mol
folding stability dG unfold [3]: 0.199 ± 0.15 kcal/mol

SMKLIGYDPVTGKPVTLTFDPETKTVTVTHPNGEKITAPAESITFDPETGTVTITLPTKTVTFYVPPEANSA [r9_325_TrMRF]
folding stability dG unfold [1]: 3.89 ± 0.27 kcal/mol
folding stability dG unfold [2]: 4.82 ± 0.2 kcal/mol
folding stability dG unfold [3]: 4.93 ± 0.12 kcal/mol

SAGGSAGGSAGGKEEEARKLAEELAKELGLEIVEVKVERTEKEVKVTIRIKKDGKEIEFSAGGSAGGSAGGS [r10_161_TrROS_Hall]
folding stability dG unfold [1]: 1.09 ± 0.048 kcal/mol
folding stability dG unfold [2]: 1.29 ± 0.12 kcal/mol
folding stability dG unfold [3]: 1.36 ± 0.025 kcal/mol

SAGGSAGGSPELKISFPGFEGAEVELDPETNIATVRVKLPDKELELKVRIDDDGITIVEVREVSAGGSAGGS [r20_60_TrMRF]
folding stability dG unfold [1]: 1.95 ± 0.07 kcal/mol
folding stability dG unfold [2]: 1.94 ± 0.14 kcal/mol
folding stability dG unfold [3]: 1.86 ± 0.054 kcal/mol

SAGGMPTTSSSAVKLDGGSDSVTTTTLPDGSRVVYIVSSDGKVYKATVTGGTTTWTEVKTVPPAELSSAGGS [r16_48_JUSTAS]
folding stability dG unfold [1]: 1.53 ± 0.031 kcal/mol
folding stability dG unfold [2]: 2.13 ± 0.051 kcal/mol
folding stability dG unfold [3]: 2.406 ± 0.018 kcal/mol

SMVKTIEIEIVLPPGEWVKLTEEDIKEKIEKELPGWKILSIDITKEERLVPGGTEPLVVIKAKILVEKKESA [r9_1189_JUSTAS]
folding stability dG unfold [1]: 4.26 ± 0.26 kcal/mol
folding stability dG unfold [2]: 3.83 ± 0.21 kcal/mol
folding stability dG unfold [3]: 3.19 ± 0.14 kcal/mol

SAGGSAKITIEKVDDQYRITVTVPVYDENGNKVPLTFDFVYPSDDPDAFLDDVIRRIRELNPDLEKSAGGSA [r15_1050_TrMRF]
folding stability dG unfold [1]: 2.3 ± 0.073 kcal/mol
folding stability dG unfold [2]: 2.77 ± 0.1 kcal/mol
folding stability dG unfold [3]: 3.01 ± 0.084 kcal/mol

SAGGSAKTVSIWIPDDLPNMPIEELIKEVMKAFPPGDEIKDIDVEPWPNGGYMYTFTVNGKEVIIWSAGGSA [r15_451_TrROS]
folding stability dG unfold [1]: 1.29 ± 0.043 kcal/mol
folding stability dG unfold [2]: 1.78 ± 0.17 kcal/mol
folding stability dG unfold [3]: 1.93 ± 0.1 kcal/mol

SAGGSAGGKIEEIAKKLNLEVESIEYDKETKKVTVTIKVNGKLYKIEIYVENGKIVKIKIEELPSAGGSAGG [r6_373_TrROS_Hall]
folding stability dG unfold [1]: 3.3 ± 0.2 kcal/mol
folding stability dG unfold [2]: 4.01 ± 0.23 kcal/mol
folding stability dG unfold [3]: 4.3 ± 0.25 kcal/mol

SAGSVEIKESSLPDSTIITITIPYTSPEEAPERIERLLKELGLSENVQVIEVKYEPSPPVVTVKIKIESAGG [r19_186_JUSTAS]
folding stability dG unfold [1]: 2.41 ± 0.077 kcal/mol
folding stability dG unfold [2]: 2.99 ± 0.12 kcal/mol
folding stability dG unfold [3]: 3.21 ± 0.09 kcal/mol

SAGGRVRLEEVEILPPLEDPEDNPDRPLLLLRVRARVEYDTPEGPREEERELVLVVSPERLEEALEALSAGG [r13_149_TrMRF]
folding stability dG unfold [1]: 0.794 ± 0.075 kcal/mol
folding stability dG unfold [2]: 1.37 ± 0.16 kcal/mol
folding stability dG unfold [3]: 1.62 ± 0.13 kcal/mol

SAGGTIFIPWEEAEEFIENAFENGEDIEIEFFLDDGWWYKFTITGPDIDLRVVEVVPMPPPPEDPGKKSAGG [r13_839_TrROS]
folding stability dG unfold [1]: 0.836 ± 0.056 kcal/mol
folding stability dG unfold [2]: 2.34 ± 0.11 kcal/mol
folding stability dG unfold [3]: 2.82 ± 0.042 kcal/mol

SAGGSAGGSAMNRYRILLLDPENGKPLVFELPGNMTPEEAKEAAEELAERFGVTVVAIEGFPSAGGSAGGSA [r18_322_TrMRF]
folding stability dG unfold [1]: 3.18 ± 0.044 kcal/mol
folding stability dG unfold [2]: 4.11 ± 0.057 kcal/mol
folding stability dG unfold [3]: 4.362 ± 0.021 kcal/mol

SAWKIWIEFTPGDPGDTYQIRIDPNSPNLEALLKELAQMFKYEVKDAEVEYNPNGSVWVEFKVDELKPPSAG [r14_655_TrROS]
folding stability dG unfold [1]: 1.77 ± 0.081 kcal/mol
folding stability dG unfold [2]: 2.37 ± 0.095 kcal/mol
folding stability dG unfold [3]: 2.67 ± 0.056 kcal/mol

SAGGSAGGSAGLPGAEKARKPKPKVKVKVTLTVLPDGTLVLRVTFEDGTTKTITLKLHPDLLSAGGSAGGSA [r18_192_TrMRF]
folding stability dG unfold [1]: 2.37 ± 0.13 kcal/mol
folding stability dG unfold [2]: 3.08 ± 0.24 kcal/mol
folding stability dG unfold [3]: 3.55 ± 0.11 kcal/mol

SAGKSIKILITTEKEEEAKKLAEEIKKELPKLGYKVEVYIMPKEEFEKFLKEFVVPEPDGKLVKVDLSSAGG [r19_187_TrMRF]
folding stability dG unfold [1]: 0.482 ± 0.056 kcal/mol
folding stability dG unfold [2]: 1.48 ± 0.19 kcal/mol
folding stability dG unfold [3]: 2.09 ± 0.1 kcal/mol

SAGGSAGGSAILVPSPETAKKIMDELRKKTGAKVKMKPIGTGADGKEYYRIEVVPPDKPLDSAGGSAGGSAG [r3_59_TrMRF]
folding stability dG unfold [1]: 0.029 ± 0.084 kcal/mol
folding stability dG unfold [2]: 0.0705 ± 0.14 kcal/mol
folding stability dG unfold [3]: -0.118 ± 0.14 kcal/mol

SAGKELTIEIVIERNGELITLTIKAKSEEELLEALKKLLEELGFEVEDIKIEKKDGEVIVTVTIRLPKKSAG [r5_946_TrROS_Hall]
folding stability dG unfold [1]: 2.7 ± 0.13 kcal/mol
folding stability dG unfold [2]: 3.43 ± 0.15 kcal/mol
folding stability dG unfold [3]: 3.83 ± 0.081 kcal/mol

SAGGWFTWDIPVKADDPKEAVDYAKEQIKNIMREHHPGMPPGMKIDDIKVEPPPNGWYWVKITIEIDPPSAG [r5_320_TrROS]
folding stability dG unfold [1]: 1.83 ± 0.083 kcal/mol
folding stability dG unfold [2]: 2.29 ± 0.15 kcal/mol
folding stability dG unfold [3]: 2.59 ± 0.083 kcal/mol

SASLVVRLPDGTEILFENLSLEEVVKLFDGGEIEIEPVPKLPVVNASSLEEAEEIAEKLKPDFVITLSGSAG [r14_445_TrMRF]
folding stability dG unfold [1]: 1.6 ± 0.088 kcal/mol
folding stability dG unfold [2]: 1.61 ± 0.074 kcal/mol
folding stability dG unfold [3]: 1.6 ± 0.044 kcal/mol

GEFVSVESVERLPDGTLVVKIKYKPPSPDTPVTVTVSHPDSSVTFTMDPTSSTITVTVPPSVSDVSVTVVGS [r1_428_JUSTAS]
folding stability dG unfold [1]: 2.6 ± 0.1 kcal/mol
folding stability dG unfold [2]: 3.29 ± 0.093 kcal/mol
folding stability dG unfold [3]: 3.58 ± 0.12 kcal/mol

SAGGSANWYIKITIEYPNGREWEIPFPFKSVEDVKDQIKNAAREYFPNLPPEDVKIDDIELYPLDDSAGGSA [r15_220_TrROS]
folding stability dG unfold [1]: 1.3 ± 0.056 kcal/mol
folding stability dG unfold [2]: 1.83 ± 0.097 kcal/mol
folding stability dG unfold [3]: 2.01 ± 0.04 kcal/mol

SAGGTRTIWFPVDDIREALPPDNIKKVEVEPVGPENNWYKVTIEFPDYKIEIQYYPEEPGMFMVTITDSAGG [r13_942_TrROS]
folding stability dG unfold [1]: 0.791 ± 0.085 kcal/mol
folding stability dG unfold [2]: 2.13 ± 0.29 kcal/mol
folding stability dG unfold [3]: 2.71 ± 0.043 kcal/mol

SAGGSAGGSMRVEITEVKEVRGEGGEPRYLVTVRITVPDGKEETFVYEFKTPEELEKLEVELPSAGGSAGGS [r20_130_JUSTAS]
folding stability dG unfold [1]: 2.55 ± 0.062 kcal/mol
folding stability dG unfold [2]: 3.13 ± 0.061 kcal/mol
folding stability dG unfold [3]: 3.37 ± 0.038 kcal/mol

SMQINVERNPENGTVIIHIPMEDMPPENIREILKDLPPNNKRVTIHMHDPPYMRWLKELAKEKGFPIKITSA [r9_919_TrROS]
folding stability dG unfold [1]: 0.824 ± 0.098 kcal/mol
folding stability dG unfold [2]: 0.623 ± 0.15 kcal/mol
folding stability dG unfold [3]: 0.453 ± 0.21 kcal/mol
